# Measured values reported in patent US20200405829.
# Experiments:
# [1] = test system: T1, Str2 circular zymogen of RNase 1
# T1 sequence: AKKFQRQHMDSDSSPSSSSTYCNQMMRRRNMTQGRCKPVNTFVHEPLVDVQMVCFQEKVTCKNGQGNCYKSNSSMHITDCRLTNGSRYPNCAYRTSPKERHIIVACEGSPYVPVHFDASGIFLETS
# [2] = test system: T2, Str3 circular zymogen of RNase 1
# T2 sequence: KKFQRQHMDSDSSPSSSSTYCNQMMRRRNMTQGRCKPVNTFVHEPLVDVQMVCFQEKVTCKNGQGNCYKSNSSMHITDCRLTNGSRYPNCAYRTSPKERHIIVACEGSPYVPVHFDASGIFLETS
# [3] = test system: T3, Str4 circular zymogen of RNase 1
# T3 sequence: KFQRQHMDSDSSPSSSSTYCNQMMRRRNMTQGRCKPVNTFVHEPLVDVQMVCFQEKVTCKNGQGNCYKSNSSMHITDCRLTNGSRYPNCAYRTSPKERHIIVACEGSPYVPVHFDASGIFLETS
# wild-type RNase 1 = test system: T4, wild-type RNase 1
# T4 sequence: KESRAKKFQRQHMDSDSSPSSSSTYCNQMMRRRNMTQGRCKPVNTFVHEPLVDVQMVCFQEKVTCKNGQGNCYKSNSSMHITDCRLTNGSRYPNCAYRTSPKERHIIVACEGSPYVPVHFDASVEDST
substance,measurement,setting,value
HIV-1 protease,kcat/KM (HIV-1 protease),[1],3900 M⁻¹ s⁻¹
same,kcat/KM (HIV-1 protease),[2],1300 M⁻¹ s⁻¹
same,kcat/KM (HIV-1 protease),[3],2500 M⁻¹ s⁻¹
same,proteolytic cleavage after 3 hours of treatment at 37° C.,wild-type RNase 1,no detectable cleavage of wild-type RNase 1 was observed
